According to publication PMC3106293:

Legend:
Conditions in all cases: other: flavonoid as substrate; substrate inhibition equation (2); 37.0 °C
[1] = substrate: O=C1C[C@@H](c2ccc(O)c(O)c2)Oc2cc(O)cc(O)c21; experiment: not read
[2] = substrate: COc1ccc([C@@H]2CC(=O)c3c(O)cc(O)cc3O2)cc1O; experiment: not read
[3] = substrate: Oc1cc(O)c2c(c1)O[C@H](c1ccc(O)c(O)c1)[C@H](O)C2; experiment: not read
[4] = substrate: O=C1C[C@@H](c2ccc(O)c(O)c2)Oc2cc(O)cc(O)c21; experiment: Sulfation of flavonoids by recombinant hSULT1A1; format: in vitro ADME, human
[5] = substrate: Oc1cc(O)c2c(c1)O[C@H](c1ccc(O)c(O)c1)[C@H](O)C2; experiment: Sulfation of flavonoids by recombinant hSULT1A1; format: in vitro ADME, human

B1: hSULT1A3 (Homo sapiens) (protein)
chain: MELIQDTSRPPLEYVKGVPLIKYFAEALGPLQSFQARPDDLLINTYPKSGTTWVSQILDMIYQGGDLEKCNRAPIYVRVPFLEVNDPGEPSGLETLKDTPPPRLIKSHLPLALLPQTLLDQKVKVVYVARNPKDVAVSYYHFHRMEKAHPEPGTWDSFLEKFMAGEVSYGSWYQHVQEWWELSRTHPVLYLFYEDMKENPKREIQKILEFVGRSLPEETMDFMVQHTSFKEMKKNPMTNYTTVPQELMDHSISPFMRKGMAGDWKTTFTVAQNERFDADYAEKMAGCSLSFRSEL
Km [1]: 193 ± 3.3 µM | Vmax [1]: 0.269 µmol/min/mg | Vmax/Km [1]: 1390 µL/min/mg | Km [2]: 179 ± 3.7 µM | Km [3]: 437 ± 10.1 µM | Vmax [3]: 0.442 µmol/min/mg | Vmax/Km [3]: 1010 µL/min/mg

B2: hSULT1A1 (Homo sapiens) (protein)
chain: MELIQDTSRPPLEYVKGVPLIKYFAEALGPLQSFQARPDDLLISTYPKSGTTWVSQILDMIYQGGDLEKCHRAPIFMRVPFLEFKAPGIPSGMETLKDTPAPRLLKTHLPLALLPQTLLDQKVKVVYVARNAKDVAVSYYHFYHMAKVHPEPGTWDSFLEKFMVGEVSYGSWYQHVQEWWELSRTHPVLYLFYEDMKENPKREIQKILEFVGRSLPEETVDFVVQHTSFKEMKKNPMTNYTTVPQEFMDHSISPFMRKGMAGDWKTTFTVAQNERFDADYAEKMAGCSLSFRSEL
Km [4]: 80.8 ± 3.3 µM | Vmax [4]: 0.0986 µmol/min/mg | Vmax/Km [4]: 1220 µL/min/mg | Km [5]: 301 ± 89.0 µM | Vmax [5]: 0.188 µmol/min/mg | Vmax/Km [5]: 620 µL/min/mg | Km [2]: 63.0 ± 0.6 µM | Vmax [2]: 0.0927 µmol/min/mg | Vmax/Km [2]: 1470 µL/min/mg
